Data published in patent US20160024208A1 (Regeneron, published 2016).

T1: Native Nav1.7 (3-1) peptide, rat (rat)
T1 construct: Synthetic peptide; also called Rat Nav1.7 3-1 native
T1 peptide: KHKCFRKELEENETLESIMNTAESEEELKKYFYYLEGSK

T2: N-Term Biotin Nav1.7 (3-1) peptide, mulatta (mulatta (monkey), not fully specified; N-terminal biotin attached via a G4S linker)
T2 construct: Synthetic peptide; also called Mulatta Nav1.7 3-1 N-term biotin; monkey
T2 peptide: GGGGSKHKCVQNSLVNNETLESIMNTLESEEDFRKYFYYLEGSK

T3: Native Nav1.7 (3-1) peptide, human (human)
T3 construct: Synthetic peptide (Celtek), unbiotinylated; also called Human Nav1.7 3-1 native; Nav1.7 3-1 native peptide
T3 peptide: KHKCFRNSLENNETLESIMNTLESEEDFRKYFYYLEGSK

T4: N-Term Biotin Nav1.7 (3-1) peptide, mouse (mouse, not fully specified; N-terminal biotin attached via a G4S linker)
T4 construct: Synthetic peptide; also called Mouse Nav1.7 3-1 N-term biotin
T4 peptide: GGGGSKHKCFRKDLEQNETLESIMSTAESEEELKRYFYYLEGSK

T5: C-term Biotin Nav1.7 (3-1) peptide, human (human, not fully specified; C-terminal biotin attached via a G4S linker)
T5 construct: Synthetic peptide; also called Human Nav1.7 3-1 C-term biotin
T5 peptide: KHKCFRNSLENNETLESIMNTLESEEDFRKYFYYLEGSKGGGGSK

T6: N-Term Biotin-Nav1.7 (3-1) peptide, human (human, not fully specified; N-terminal biotin attached via a G4S linker)
T6 construct: ELISA peptide
T6 peptide: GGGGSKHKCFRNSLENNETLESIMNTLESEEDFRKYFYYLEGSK


How the values were obtained:
[1] = target: T1, Native Nav1.7 (3-1) peptide, rat; assay: SPR, captured antibody, peptide analyte
Experimental: (§1) The binding affinities of anti-Naᵥ 1.7 antibodies to Naᵥ 1.7 loop peptides were determined by Biacore. For monovalent kinetic experiments, antibodies were captured through the Fc region via a goat anti-Fc-coupled biosensor surface, and the peptides (as analyte) were injected over this captured antibody surface. For bivalent (avidity-driven) kinetic experiments, biotinylated peptides corresponding to the Naᵥ 1.7 3-1, 3-3, or paddle loop sequences were captured on a NeutrAvidin sensor surface, and anti-Naᵥ 1.7 antibodies (as analyte) were injected over this surface. Following the capture step, each analyte was individually injected at several concentrations over its respective capture surface, and changes in bound surface units (RU) were monitored. The dissociation rate is independent of the concentration of analyte used in the experiment, and the dissociation rate constant (kd) was determined from the change in antibody-bound analyte RU over time. The Biacore kinetic data were obtained using a double referencing procedure. The double referencing was conducted by first subtracting any interaction of the analyte over the reference surface (i.e., the anti-Fc coupled surface alone or the NeutrAvidin surface alone), thereby correcting for nonspecific binding to capture surface and for refractive index changes. Control buffer injections (no analyte) over the antibody- or peptide-captured surfaces were also performed to allow subtraction of RU signal changes resulting from the natural dissociation of captured binding partner from the sensor surface. The kinetic parameters were obtained by globally fitting the data for all concentrations tested for a given peptide or antibody to a 1:1 binding model using Biacore T100 Evaluation Software version 2.0.2. The KD was calculated as the dissociation rate constant divided by the association rate constant (KD=kd/kₐ). The dissociative half-life (t_{1/2}) was calculated from the dissociation rate constant (t_{1/2}=In2/kd).

[2] = target: T2, N-Term Biotin Nav1.7 (3-1) peptide, …; assay: SPR, captured antibody, peptide analyte
Experimental: as §1

[3] = target: T3, Native Nav1.7 (3-1) peptide, human; assay: SPR, captured antibody, peptide analyte
Experimental: as §1

[4] = target: T4, N-Term Biotin Nav1.7 (3-1) peptide, …; assay: SPR, captured antibody, peptide analyte
Experimental: as §1

[5] = target: T5, C-term Biotin Nav1.7 (3-1) peptide, …; assay: SPR, captured biotin-peptide, antibody analyte
Experimental: as §1

[6] = target: T1, Native Nav1.7 (3-1) peptide, rat; assay: ELISA on coated peptide, antibody 1 ug/ml, OD450 grade
Experimental: (§2) Anti-Naᵥ 1.7 antibodies were tested for their ability to bind to the Naᵥ 1.7 peptides. The various peptides were coated overnight onto 96-well Nunc Immunosorp plates at a concentration of 4 μg/mL in PBS, followed by blocking for 1 hour in a suitable blocking agent. For biotinylated peptides, avidin was first coated on Nunc Immunosorp plates at 2 μg/mL in PBS overnight, followed by blocking as described, and the plate was then coated with biotinylated peptides at a concentration of 0.4 μg/mL and incubated for 1 hour at room temperature. Purified anti-Naᵥ 1.7 antibodies were diluted to a final concentration of 0.1 μg/mL and 1.0 μg/mL and added to the wells of the coated microtiter plates followed by incubation for 1 hour at room temperature. Bound antibodies were detected with horseradish peroxidase (HRP) conjugated anti-mouse or anti-human IgG (Jackson Immuno Research Lab, West Grove, Pa.) depending on the antibody species and developed by colorimetric response using tetramethylbenzidine (TMB) substrate (BD Biosciences). Absorbance was read at OD₄₅₀ on a plate reader for 0.1 second.
(§3) Values in Table 11 represent absolute binding ranges (at OD450) to plate-coated peptides for antibodies added at 1 μg/ml as follows: OD450<0.2: −; 0.2<OD450<1: +; 1<OD450<2: ++; 2<OD450<4: +++; NT: Not Tested.

[7] = target: T2, N-Term Biotin Nav1.7 (3-1) peptide, …; assay: as above
Experimental: as §2, §3

[8] = target: T4, N-Term Biotin Nav1.7 (3-1) peptide, …; assay: as above
Experimental: as §2, §3

[9] = target: T6, N-Term Biotin-Nav1.7 (3-1) peptide, …; assay: as above
Experimental: as §2, §3

[10] = target: T7, full-length human Nav1.7 fused at its N-terminus to GFP, expressed in HEK293 cells (human, UniProt Q15858 1-1988); assay: flow cytometry; % stained hNav1.7-GFP-HEK293 minus parental HEK293
T7 construct: Voltage-gated sodium channel alpha subunit; In the Western blot it stood as denatured cell lysate; also called hNav 1.7-GFP-HEK293; Nav 1.7-GFP-HEK293; not shown: green fluorescent protein (GFP) at the N-terminus
Experimental: The binding of anti-Naᵥ 1.7 human antibodies to full-length Naᵥ 1.7 expressed in HEK293 cells was determined by flow cytometry (FACS). HEK293 cells were stably-transfected with full-length human Nav1.7 fused at its N-terminus to the green fluorescent protein (GFP) to generate cell line hNaᵥ 1.7-GFP-HEK293. Antibody binding to the transfected cells overexpressing Naᵥ 1.7 was compared to binding to the parental HEK293 cell line. To perform the binding experiments, adherent cells were collected using 1 mM EDTA in PBS, washed and re-suspended in cold PBS containing 5% FBS. For each binding experiment, the anti-Naᵥ 1.7 antibody (at concentrations ranging from 1 nM to 13 nM), was added to 250,000 cells in 500 μL of PBS with 5% FBS. After incubation for 20 minutes on ice, the secondary antibody, recognizing either human-Fc and conjugated to cyanine 5 (Cy5) or recognizing mouse-Fc and conjugated to allophyocyanin (APC), was then added to the cell mixture at a final secondary antibody concentration of 1.7 nM. After incubating for 20 minutes on ice, the cells were resuspended in PBS+5% FBS and then sorted and analyzed on a flow cytometer to determine relative binding by the candidate antibodies. For FACS analysis, gating was applied to examine only healthy live cells in the antibody binding experiments, and percentage stained was recorded. Staining of secondary antibodies alone to Naᵥ 1.7-GFP-HEK293 cells gave low background signals (1-2%). Specific binding was measured as the percent binding to Naᵥ 1.7-GFP-HEK293 cells minus percent binding to parental HEK293 cells.

[11] = target: T7, full-length human Nav1.7 fused at its …; assay: cell-based or functional assay

Binder | Kd [1] [nM] | t1/2 [1] [min] | Kd [2] [nM] | t1/2 [2] [min] | Kd [3] [nM] | t1/2 [3] [min] | Kd [4] [nM] | t1/2 [4] [min] | Kd [5] [nM] | t1/2 [5] [min] | OD450 [6] [od] | OD450 [7] [od] | OD450 [8] [od] | OD450 [9] [od] | % Binding Nav1.7 [10] [%] | Current blocking (Average % inhibition), IonWorks Quattro, 223 nM antibody [11] [%]
H1M834N (antibody, V domains shown) VH: QVQLVESGGGVVQPGRSQRLSCAASGFTFSHYGMHWVRQAPGKGLEWVAVISYDGNNKHYADSVKGRFTTSRDNSKNTLFLQMNSLRAEDTAVYYCARGYSGYVLDYWGQGTLVTVSS VL: not shown | 10.2 | 2.3 | 2.39 | 20.3 | 5.53 | 12 | 19.2 | 2.8 | 0.751 | 82.5 | 2 to 4 | 2 to 4 | 1 to 2 | 2 to 4 | 4.8 | -14
H1M839N (antibody, V domains shown) VH: QVQLVESGGGVVQPGRSLRLSCAASGFTFSNYGMHWVRQAPGKGLEWVAVTSYDGSNKHYADSVKGRFSTSRDNPKNTLYLQMDSLRGEDTAVYYCARGYSGFVLDNWGQGTLVTVSS VL: DIVMTQTPLSSPVTLGQPASISCRSSQSLVKSDGNTYLSWLQQRPGQPPRLLIYKISNRFSGVPDRFSGSGAGTDFTLKISRVEAEDVGIYYCMQTTQFPFTFGPGTKVDIK | 7.11 | 3.2 | 1.47 | 28.7 | 3.32 | 18.2 | 15.1 | 3.1 | 0.692 | 137 | 2 to 4 | 2 to 4 | 2 to 4 | 2 to 4 | 5.1 | 13
H4H367B (antibody, V domains shown) VH: QVQLVQSGGGVVQPGRSLRLSCAASGFSFSSFGMHWVRQAPGKGLEWVAVISYGGINKHYSDSVKGRFTISRDDSKNTLYLQMNSLRAEDTAVYYCAKREGYRYAYDYWGQGTLVTVSS VL: DIQMTQSPSSLSASVGDRVTITCRASQGISNYLAWFQQKPGKAPKSLIYGASSLQSGVPSKFSGSGSGTDFTLTISSLQPEDFATYYCQQYNSYPLTFGGGTKVEIKR | 88 | 0.42 | 0.63 | 23.7 | 4.67 | 10.5 | 107 | 0.59 | 0.341 | 94 | 2 to 4 | 2 to 4 | 2 to 4 | 2 to 4 | 15.8 | -35
H4H397B (antibody, V domains shown) VH: QVQLVQSGGGVVQPGRSLRLSCAASGFTFSSYGMHWVRQAPGKGLEWVALISYAGINEYYADSVKGRFTISRDDSKNTLYLQMNSLRVEDTAVYYCAKSRGYSYGLGYWGQGTLVTVSS VL: not shown | 14.2 | 3.3 | 0.097 | 289 | 2.37 | 34 | 43.5 | 3.92 | 0.299 | 206 | 2 to 4 | 2 to 4 | 2 to 4 | 2 to 4 |  | -50

Stronger by Kd [1], values ahead:

Kd [1] [nM] | t1/2 [1] [min] | Kd [2] [nM] | t1/2 [2] [min] | Kd [3] [nM] | t1/2 [3] [min] | Kd [4] [nM] | t1/2 [4] [min] | Kd [5] [nM] | t1/2 [5] [min] | OD450 [6] [od] | OD450 [7] [od] | OD450 [8] [od] | OD450 [9] [od] | % Binding Nav1.7 [10] [%] | Current blocking (Average % inhibition), IonWorks Quattro, 223 nM antibody [11] [%] | Binder
4.67 | 3.1 | 1.11 | 17.5 | 4.31 | 4 | 14.8 | 1.3 | 0.123 | 84.2 | 2 to 4 | 2 to 4 | 2 to 4 | 2 to 4 | 12.5 | 38 | H1H1008B (antibody, V domains shown, Fully human antibody; also called H4H1008B) VH: EVQLVQSGPGLVKSSETLSLKCTVSGGSISSSGYYWGWIRQPPGKGLEWIGSIHRSGSTFYNPSLKSRVTISVDTSKSQFSLRLTSVTAADTSVYFCGRHGRDYYYGMDVWGQGTTVTVSS VL: DIQMTQSPSSVSASVGDRVTITCRSSQDINNWLVWYQQKPGKAPKVLIYGASRLQSGVPSRFSGSGSGTDFTLTISSLQPEDFATYYCQQANSFPLTFGGGTKLEIKR
6.7 | 3 | 1.89 | 26.5 | 5.85 | 12.5 | 12 | 3.2 | 0.78 | 87.2 | 2 to 4 | 2 to 4 | 2 to 4 | 2 to 4 | 5.9 | 25 | H1M875N (antibody, V domains shown, also called H1H875N) VH: QVQLVESGGGVVQPGRSQRLSCAASGFTFSHYGMHWVRQAPGKGLEWVAVISYDGNNKHYADSVKGRFTTSRDNSKNTLFLQMNSLRAEDTAVYYCARGYSGYVLDYWGQGTLVTVSS VL: not shown
